# Assay results reported in patent US12286661B2, “Methods for making high intensity sweeteners” (Firmenich Incorporated, priority 2018, dated 2025).
# Positions count from the first letter of the chain named.
# B1: SEQ ID NO. 1026/1027: CYP450 enzyme (DNA/protein SEQ ID NO) producing 11-OH cucurbitadienol (protein, listed as Cucumis sativus)
# chain: MWTILLGLATLAIAYYIHWVNKWKDSKFNGVLPPGTMGLPLIGETIQLSRPSDSLDVHPFIQRKVKRYGPIFKTCLAGRPVVVSTDAEFNHYIMLQEGRAVEMWYLDTLSKFFGLDTEWLKALGLIHKYIRSITLNHFGAESLRERFLPRIEESARETLHYWSTQTSVEVKESAAAMVFRTSIVKMFSEDSSKLLTEGLTKKFTGLLGGFLTLPLNLPGTTYHKCIKDMKQIQKKLKDILEERLAKGVKIDEDFLGQAIKDKESQQFISEEFIIQLLFSISFASFESISTTLTLILNFLADHPDVVKELEAEHEAIRKARADPDGPITWEEYKSMNFTLNVICETLRLGSVTPALLRKTTKEIQIKGYTIPEGWTVMLVTASRHRDPEVYKDPDTFNPWRWKELDSITIQKNFMPFGGGLRHCAGAEYSKVYLCTFLHILFTKYRWRKLKGGKIARAHILRFEDGLYVNFTPKE
# B2: SEQ ID NO. 1028/1029: CYP450 enzyme (DNA/protein SEQ ID NO) producing 11-OH cucurbitadienol (protein)
# chain: B1 chain with R63S, T166P, E197A, L217V, Q231E, K249S, V306A, K411R
# modifications: Cucumis melo
# B3: SEQ ID NO. 1030/1031: CYP450 enzyme (DNA/protein SEQ ID NO) producing 11-OH cucurbitadienol (protein)
# chain: MWTIGLCIVAVLVIYLSYRLNKWSNPKCNGILPPGSMGLPLIGETLQLIVPSYSLDLHPFIKKKAQKYGPIFRTSVAGSPIVVSIDPEFNHYIVKQEGRLVELWYLDSFSKLFSTEGENKTNAIGVVHKYIRSIALNHFGVDPLKEKLLPQIEEFVDKALQTWSSHPLVEMKHAASVMIFDFSAKLFISYDAENSPMKMSEKFTNILGGFMSFPLNIPGTTYHKCLKDRNEALSMLRKIFKERINSPKRHFEDLLDQAINDTDKEKFLPEDFIINVVFGLLFASFESISAALSLILNLLAEHPAVLQELTDEHKAILKNRESPNSILTWDEYKSMTFTHQVINEALRLGGVAPGLLRKALKDIEFKGYTIPAGWTIMLVNSAIQLNPNTYKDPLAFNPWRWKDLDSLFVSKNFMPFGGGIRQCVGAEYSKTFLATFLHVLVTKYRWTKVKGGTIVRNPILEFTDGLHIKFSAISN
# modifications: Quercus suber
# B4: SEQ ID NO. 889/890: CYP450 enzyme (DNA/protein SEQ ID NO) producing 11-OH cucurbitadienol (protein)
# chain: MEVHWVCMCAATLLVCYIFGSKFVRNLNGWYYDVKLRRKEHPLPPGDMGWPLMGNLLSFIKDFSSGHPDSFINNLVLKYGRSGIYKTHLFGNPSIIVCEPQMCRRVLTDDVNFKLGYPKSIKELARCRPMIDVSNAEHRLFRRLITSPIVGHKALAMYLERLEEIVINSLEELSSMKHPVELLKEMKKVSFKAIVHVFMGSSNQDIIKKIGSSFTDLYNGMFSIPINVPGFTFHKALEARKKLAKIVQPVVDERRLMIENGQQEGDQRKDLIDILLEVKDENGRKLEDEDISDLLIGLLFAGHESTATSLMWSITYLTQHPHILKKAKEEQEEIMRTRLSSQKQLSFKEIKQMVYLSQVIDETLRCANIAFATFREATADVNINGYIIPKGWRVLIWARAIHMDSEYYPNPEEFNPSRWDDYNAKAGTFLPFGAGSRLCPGADLAKLEISIFLHYFLLNYRLERVNPECHVTSLPVSKPTDNCLAKVMKVSCA
# modifications: Pathway step 3 sequence T CYP88D6 (codon optimized)
# B5: SEQ ID NO. 1032/1033: CYP450 enzyme (DNA/protein SEQ ID NO) producing 11-OH cucurbitadienol (protein, listed as Cucurbita maxima)
# chain: MWTIVVGLATLAVAYYIHWINKWKDSKFNGVLPPGTMGLPLIGETLQLSRPSDSLDVHPFIKKKVKRYGSIFKTCLAGRPVVVSTDAEFNNYIMLQEGRAVEMWYLDTLSKFFGLDTEWLKALGFIHKYIRSITLNHFGAESLRERFLPRIEESAKETLCYWATQPSVEVKDSAAVMVFRTSMVKMVSKDSSKLLTGGLTKKFTGLLGGFLTLPINVPGTTYNKCMKDMKEIQKKLREILEGRLASGAGSDEDFLGQAVKDKGSQKFISDDFIIQLLFSISFASFESISTTLTLILNYLADHPDVVKELEAEHEAIRNARADPDGPITWEEYKSMTFTLHVIFETLRLGSVTPALLRKTTKELQINGYTIPEGWTVMLVTASRHRDPAVYKDPHTFNPWRWKELDSITIQKNFMPFGGGLRHCAGAEYSKVYLCTFLHILFTKYRWTKLKGGKVARAHILSFEDGLHMKFTPKE
# B6: SEQ ID NO. 1034/1035: CYP450 enzyme (DNA/protein SEQ ID NO) producing 11-OH cucurbitadienol (protein)
# chain: MEIINGVFLILPLGFVLVFEVLKRLNGLYYAVKLGKKWGELPPGDLSWPLLGSTLSFLKSFTVGPPESFIRIFTTRYGKVDMYKTHMFGRASILVCKPEICRQVLIDETKFVPSYPACMKRLFGRKSLIRVSKAEHRKLRRMTMAPISSHAALEIYIEHTEHTVISGLEEWSSVEKPLKLLTEIKELTFKIIWNIFMGSTSIDYTTKEMEALYDDVALGLFCFPINFPGFNFHKSLKARKRLYEILLSIVNEKRLMKKSKGESWEAKDMMDLMTEVEDEDGEGMDNETITDLIFGKLFAGHETSAFTTMWAIIFLTDHPHIFQRAKEEQEDIIRRRPSTQKGINLVEFKQMKFLSQVIDETLRLSSIAFATFREATTDININGKLIPKGWKVILWHRGLYMDEELHPSPQDFNPSRWDDFIGNPGAFTPFGLGVRLCPGRDLAKLEISIFLHHFLLNYKIERYNPQCQLTYLPLPHPKDKCLARVLKAAGQCV
# modifications: Cucurbita pepo
# B7: SEQ ID NO. 1052/1053: glycosyltransferase (DNA/protein SEQ ID NO) producing mogroside I from mogrol (protein, listed as Siraitia grosvenorii)
# chain: MEKGDTHILVFPFPSQGHINPLLQLSKRLIAKGIKVSLVTTLHVSNHLQLQGAYSNSVKIEVISDGSEDRLETDTMRQTLDRFRQKMTKNLEDFLQKAMVSSNPPKFILYDSTMPWVLEVAKEFGLDRAPFYTQSCALNSINYHVLHGQLKLPPETPTISLPSMPLLRPSDLPAYDFDPASTDTIIDLLTSQYSNIQDANLLFCNTFDKLEGEIIQWMETLGRPVKTVGPTVPSAYLDKRVENDKHYGLSLFKPNEDVCLKWLDSKPSGSVLYVSYGSLVEMGEEQLKELALGIKETGKFFLWVVRDTEAEKLPPNFVESVAEKGLVVSWCSQLEVLAHPSVGCFFTHCGWNSTLEALCLGVPVVAFPQWADQVTNAKFLEDVWKVGKRVKRNEQRLASKEEVRSCIWEVMEGERASEFKSNSMEWKKWAKEAVDEGGSSDKNIEEFVAMLKQT
# B8: SEQ ID NO. 1054/1055: glycosyltransferase (DNA/protein SEQ ID NO) producing mogroside I from mogrol (protein, listed as Barbarea vulgaris)
# chain: MVSEITHKSYPLHFVLFPFMAQGHMIPMVDIARLLAQRGVKITIVTTPHNAARFENVLSRAIESGLPISIVQVKLPSQEAGLPEGNETFDSLVSMELLVPFFKAVNMLEEPVQKLFEEMSPQPSCIISDFCLPYTSKIAKKFNIPKILFHGMCCFCLLCMHVLRKNREILENLKSDKEHFVVPYFPDRVEFTRPQVPMATYVPGEWHEIKEDIVEADKTSYGVIVNTYQELEPAYANDYKEARSGKAWTIGPVSLCNKVGADKAERGNKADIDQDECLKWLDSKEEGSVLYVCLGSICSLPLSQLKELGLGLEESQRPFIWVVRGWEKNKELLEWFSESGFEERVKDRGLLIKGWSPQMLILAHHSVGGFLTHCGWNSTLEGITSGIPLLTWPLFGDQFCNQKLVVQVLKVGVSAGVEEVTNWGEEEKIGVLVDKEGVKKAVEELMGESDDAKERRKRVKELGQLAQKAVEEGGSSHSNITSLLEDIMQLAQSNN
# B9: SEQ ID NO. 1056/1057: glycosyltransferase (DNA/protein SEQ ID NO) producing mogroside I from mogrol (protein, listed as Barbarea vulgaris)
# chain: B8 chain with M95T, E96K, M198L, I213M, D238G, I387V, R455I, Q467H, S493P
# Tests used:
# cucurbitadienol = test: 11-OH cucurbitadienol production from cucurbitadienol by CYP450s expressed in S. cerevisiae, LCMS; type: cell-based; settings: S. cerevisiae strain producing cucurbitadienol and expressing SgCPR; LCMS peak area of product vs. internal reference; hits over vector only control
# Source text: (§1) DNA was obtained through gene synthesis either through Genescript, IDT, or Genewiz. For some of the cucurbitadienol synthases, cDNA or genomic DNA was obtained through 10-60 day old seedlings followed by PCR amplification using specific and degenerate primers. DNA was cloned through standard molecular biology techniques or through yeast gap repair cloning (Joska et al., 2014) into one of the following overexpression vectors: pESC-Ura, pESC-His, or pESC-LEU. Gene expression was regulated by one of the following promoters; Gall, Gal10, Tef1, or GDS. Yeast transformation was performed using Zymo Yeast Transformation Kit II. Yeast strains were grown in standard media (YPD or SC) containing the appropriate selection with 2% glucose or 2% galactose for induction of heterologous genes. Yeast strains were grown in shake flask or 96 well plates at 30° ° C., 140-250 rpm. When indicated, lanosterol synthase inhibitor, Ro 48-8071 (Cayman Chemicals) was added (50 ug/ml). Yeast samples producing mogrol precursors, mogrol and mogrosides were processed through one of the following: • Cucurbitadienol and 11-OH Cucurbitadienol: Samples cell pellets were lysed (Yeast Buster) followed by ethyl acetate extraction, drying, and resuspension in methanol. • ·Mogrol and Mogrosides: Samples cell pellets were lysed in 50% ETOH, incubated at 80° C. for 30 min, filtered, dried and resuspended in MeOH for LCMS screening.
# For analyzing 11-OH cucurbitadienol, the LCMS method included the use of C8 2.1×100 mm column, gradient 60 to 90% B for 6 minutes at flow rate of 0.55 ml/min. For the enzyme screening, the LCMS method used was a Waters Acquity UPLC Protein BEH C4, 2.1×100 mm, 1.7 μm column and a gradient of 40% to 80% over 5 minutes, 95% B from 5.1 to 5.6 minutes with a flow rate of 0.55 ml/min, and ESI source positive mode single ion monitoring of 425.4.
# Additional CYP450s were expressed in S. cerevisiae strain producing cucurbitadienol and expressing SgCPR. DNA and protein sequences for the CYP450 enzymes are shown in SEQ IDs 871-890 and 1024-1049 (see Table 1).
# mogrol = test: Mogroside IA and/or IE production from mogrol by glycosyltransferases expressed in S. cerevisiae, LCMS; type: cell-based; settings: 10 μM mogrol, 2-4 days at 30° C.; identified by LCMS
# Source text: as §1
# For analyzing Mogroside IIIE & Compound 1, the LCMS method included the use of Fluoro-phenyl 2.1×100 mm column, gradient 15 to 30% B for 6 minutes, at flow rate of 0.55 ml/min. For analyzing yeast production of mogroside I during enzyme screening, the LCMS method used a Phenomenex Kinetex Polar C18, 4.6×100 mm, 2.6 μm column, and a gradient of 25% to 55% B over 3 minutes, and 100% B at 3.5 minutes with a flow rate of 1.5 ml/min. Detection by ESI source negative mode single ion monitoring of 683.4 for mogroside I and 799.4 for mogroside II.
# Various glycosyltransferase proteins were expressed in S. cerevisiae grown in the presence of 10 μM mogrol for 2-4 days at 30° C., 140-250 rpm in either shake flask or 96 well plates. Glycosyltransferases leading to production of Mogroside IA (glycosylation of C24-OH position) and/or Mogroside IE (glycosylation of C3-OH position) are provided in Table 6. DNA and protein sequences for the enzymes are provided in SEQ IDs 1050-1071 (see Table 1).
molecule,measurement,setting,value
B1,Peak Area 11-OH CCB,cucurbitadienol,0.9893
B2,Peak Area 11-OH CCB,cucurbitadienol,0.9703
B3,Peak Area 11-OH CCB,cucurbitadienol,0.9207
B4,Peak Area 11-OH CCB,cucurbitadienol,0.649
B5,Peak Area 11-OH CCB,cucurbitadienol,0.4459
B6,Peak Area 11-OH CCB,cucurbitadienol,0.3854
B7,Mogroside IA,mogrol,1605
same,Mogroside IE,mogrol,22917
B8,Mogroside IA,mogrol,659331
same,Mogroside IE,mogrol,17857
B9,Mogroside IA,mogrol,200270
same,Mogroside IE,mogrol,4690
